Reference: the RNAGym collection of RNA variant scans (doi:10.1073/pnas.2313332121)

B1: TPR t1 (parent)
chain: GACCAAUCUGCCCUCAGAGCUCGAGAACAUCUUCGGAUGCAGAGGAGGCAGGCUUCGGUGGCGCGAUAGCGCCAACGUCCUCAACCUCCAAUGCAUCCCACCACAUGAUGAUGCCUGAAGAGCCUUGGUUUUUUG

Variants of: B1
Test: polymerase ribozyme fitness, log enrichment relative to wild type (log ratio); higher = more active; in vitro selection for triplet polymerase activity
Method in brief: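 Fitness compares each genotype's enrichment to that of the wild type on a logarithmic scale, averaging replicates with inverse-variance weights. The logarithm is base 2. Enrichment came from Illumina sequencing of input and output libraries after one triplicate round of in vitro selection, which included frozen incubation at −7 °C, of PCR-built, transcribed mutant libraries of each subunit of a heterodimeric triplet polymerase ribozyme. Only genotypes with ≥10 input reads and ≥1 read per output were kept.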

Variant | polymerase ribozyme fitness (log ratio)
G36U G58U U59A A91C U112A | -2.22
G52U G61C | 0.0885
U7C A26G G45A | -2.55
A16C G47U | -3.93
C76G A118G G122U | -0.593
G23A C124A | -1.95
C11G A46G C79U C82U C98U A118U | -0.917
A46U C79U A105G | -3.11
C12U C13G C49U C53U G127A | -3.32
A27U C104A | -4.18
U33A G48C | -5.1
C56U C72A C89A | -2.41
A27C A90U | -5.3
G113U U132A | -2.22
G77C U78G U106A | -0.0347
G48A G71A | -1.09
G52C C70U C72U G117U | -4.23
C72G U92A A118U U131C | -3.98
A43U C85A | -2.96
A18C A50U G60U C102A A119G G127U | -7.23
U109C A111C | -3.65

Variant | polymerase ribozyme fitness (log ratio)
A6U A18U G60U U112C | -0.222
G69A C115U | -2.83
C56U C64A C115U | -7.12
C15A A27C U55A | -5.44
A83G U116A | -3.6
A6U G57U G61A U87C C99A C124A | -5.7
G45A G71U A84G | -2.48
C8G U14A A29G C40G G44U G57C | -2.63
C22G G23C A24C C89A C123A | -6.86
U9A G61A A100U | 0.389
C28U G36A G48A | -3.89
A5U C72U U81C | -0.617
A46C C56U C72U U78A A90G C94U A111C | -0.367
C73U U130C | 0.504
G61U U132A | 0.196
G77A C123U | 1.1
C70G A121G | -0.69
C104U G120U G135U | -0.513
C12A C70U U78G | -1.07
G60A C76U | -1
G44A C86G U96A | -3.83

Variant | polymerase ribozyme fitness (log ratio)
C12U G63U A68C C123U | -4.7
A29U C56U | -1.54
C62A G122A | -1.85
C8G G47C G60A | -1.03
C12U G39U C62A U78A | -1.41
G35A C124G | -2
C70G U81A | -5.64
C4U C20A | -2.6
C11A C13G C20U C53U U78G | -2.65
A50G C62A | -0.949
C72U A121C | 1.6
C8A G36U G42A | -3.09
G23U A43U G60A | -7.42
A27G G110A | -1.89
C56U U112C | 0.364
U9A C12U G61C | -1.89
C8A U112A | 1.61
A75G G117A | -1.28
C8A U9A A50U C80U A84C | -2.54
C22A C49G G69U C85U | -2.28
C15G A43U A84U | -5.64

Variant | polymerase ribozyme fitness (log ratio)
G60A G120C G128U | 0.061
C40U C85A G120C | -0.223
G69A U78G | -2.63
U87A C89A A91C A95G G113C | -2.9
A29U G60C | -2.06
C56A G117A U125G G128C | -4.73
C86A C104U | 0.0777
U21G A46C C86U | -2.16
G39C G48A G71U | -1.51
A16C G77U A119G | 0.8
C4G C8G A37U G45A U131G | -2.92
A43G U112A | -0.27
G77U G120A | -0.148
C53A G61C | -4.19
A18G G57U | -3.92
A27U C124A | -0.764
C62A A84G G117A | -5.26
G71A C114A | -1.41
G44A C124U | 0.684
C11G G93U | 0.289
